The values that follow come from patent publication US20240043547A1.

In assay [1] the target is human IL-31 (human) (UniProt Q6EBC2). Nature of the assay: cell-based or functional assay.
Assay [2] concerns the target cynomolgus IL-31-His (cynomolgus monkey (Macaca fascicularis)). Nature of the assay: SPR (Biacore T200), cynomolgus IL-31-His captured via anti-His antibody, scFv as analyte.

Residue numbers refer to the chain shown, from its start.

Chain of human IL-31 (human) (Q6EBC2 24-164 limits assumed): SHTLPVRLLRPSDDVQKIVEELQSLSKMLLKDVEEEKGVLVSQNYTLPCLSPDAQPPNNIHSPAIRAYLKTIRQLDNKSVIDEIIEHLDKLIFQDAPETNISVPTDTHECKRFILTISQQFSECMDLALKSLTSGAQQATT

B1: PRO1901 (scFv)
scFv: AFQLTQSPSSLSASVGDRVTITCQASQSIDSWLAWYQQKPGKPPKLLIYQASKLASGVPSRFSGSGSGTDYTLTISSLQPEDFATYYCQTYYGGGHIGWGFGTGTKVTVLGGGGGSGGGGSGGGGSGGGGSQSQLVESGGGSVQPGGSLRLSCAASGFSFSANYWICWVRQAPGKGLEWIVCIYIGSRADTYYAPWAKGRFTISKDNSKNTVYLQMNSLRAEDTATYFCARFSSGIYDLDRFFLWGQGTQVTVSS
Turning to B1, in assay [1], the IC50 [ng/ml], neutralization of hIL-31-induced signaling in IL-31RA/OSMR dimerization assay was determined as 8.07 ng/mL and the rel. IC50 (IC50, BMS-981164/IC50, test sample), IL-31RA/OSMR dimerization assay was 0.78. In assay [2], the Kd is 1.14 nM, the off-rate constant (koff) amounted to 0.000569 s⁻¹ and the kon turned out to be 501000 M⁻¹ s⁻¹.

B2: PRO1902 (scFv)
scFv: B1 scFv with S142L, Y184S, T226V, Q250L
Turning to B2, in assay [1], the IC50 [ng/ml], neutralization of hIL-31-induced signaling in IL-31RA/OSMR dimerization assay amounted to 371 ng/mL and the rel. IC50 (IC50, BMS-981164/IC50, test sample), IL-31RA/OSMR dimerization assay stood at 0.03. Moreover, in assay [2], the Kd was 3.38 nM, the off-rate (koff) was determined as 0.00247 s⁻¹ and the kon stood at 731000 M⁻¹ s⁻¹.

B3: PRO1903 (scFv)
scFv: B1 scFv with D30E, S142L, T226V, Q250L
In assay [1], B3 registered an IC50 [ng/ml], neutralization of hIL-31-induced signaling in IL-31RA/OSMR dimerization assay of 7.98 ng/mL and a rel. IC50 (IC50, BMS-981164/IC50, test sample), IL-31RA/OSMR dimerization assay of 1.49. In assay [2], the Kd turned out to be 1.39 nM, the koff is 0.000605 s⁻¹ and the kon is 434000 M⁻¹ s⁻¹.

The Kd is the concentration at which binding is half-saturated. A word on the koff: it is the first-order rate constant of dissociation. As a reminder, the kon is a measure of how fast the partners come together.
